Results as given in the supplement of paper PMC7877785.
± gives the uncertainty stated by the source.

Experiment: self-splicing fitness, log relative to wild type (ln ratio); higher = more splicing; Tetrahymena group I intron in knt gene, E. coli kanamycin selection, DiMSum; sequences stand for … in CUCUCU…GGAGGGAAAAGUUAUCAGGCAUGCACCUGGUAGCUAGUCUUUAAACCAAUAGAUUGCAUCGGUUUAAAAGGCAAGACCGUCAAAUUGCGGGAAAGGGGUCAACAGCCGUUCAGUACCAAGUCUCAGGGGAAACUUUGAGAUGGCCUUGCAAAGGGUAUGGUAAUAAGCUGACGGACAUGGUCCUAACCACGCAGCCAAGUCCUAAGUCAACAGAUCUUCUGUUGAUAUGGAUGCAGUUCACAGACUAAAUGUCGGUCGGGGAAGAUGUAUUCUUCUCAUAAGAUAUAGUCGGACCUCUCCUUAAUGGGAGCUAGCGGAUGAAGUGAUGCAACACUGGAGCCGCUGGGAACUAAUUUGUAUGCGAAAGUAUAUUGAUUAGUUUUGGAGUACUCGUGGUCG
Summary of the method: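 Library with all eight P1ex-region intron nucleotides randomised, intron inside the knt kanamycin-resistance gene on pET-22b(+), in E. coli BL21(DE3). Cells grew overnight at 37°C or 30°C on LB agar with or without 25 μg/mL kanamycin (plus 100 μg/mL carbenicillin, 50 μM IPTG, 0.2% rhamnose), in six replicate transformations. Pooled colonies were amplicon-sequenced on Illumina HiSeq 2500. DiMSum fitness is the error-weighted combination of wild-type-normalised replicate fold changes, kanamycin versus none.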

Sequence: CGCGAGCAAUAUUACGGAAU
- self-splicing fitness (ln) (30 °C): -3.2 ± 0.2
- self-splicing fitness (ln) (37 °C): -3.01 ± 0.25

Sequence: GUGAAGCAAUAUUACGCGGG
- self-splicing fitness (ln) (30 °C): -2.8 ± 0.19
- self-splicing fitness (ln) (37 °C): -1.55 ± 0.2

Sequence: CGCCAGCAAUAUUACGACGG
- self-splicing fitness (ln) (30 °C): -1.65 ± 0.11
- self-splicing fitness (ln) (37 °C): -0.853 ± 0.12

Sequence: CGCGAGCAAUAUUACGACAG
- self-splicing fitness (ln) (30 °C): -0.942 ± 0.11
- self-splicing fitness (ln) (37 °C): -0.403 ± 0.16

Sequence: AUGUAGCAAUAUUACGAAUA
- self-splicing fitness (ln) (30 °C): -2.75 ± 0.26
- self-splicing fitness (ln) (37 °C): -1.22 ± 0.21

Sequence: GAGAAGCAAUAUUACGCCCG
- self-splicing fitness (ln) (30 °C): -2.15 ± 0.19
- self-splicing fitness (ln) (37 °C): 0.00226 ± 0.24

Sequence: ACAUAGCAAUAUUACGUAGG
- self-splicing fitness (ln) (30 °C): -3.02 ± 0.13
- self-splicing fitness (ln) (37 °C): -1.84 ± 0.12

Sequence: GCAGAGCAAUAUUACGCCUC
- self-splicing fitness (ln) (30 °C): -2.46 ± 0.21
- self-splicing fitness (ln) (37 °C): -2.38 ± 0.34

Sequence: CUUUAGCAAUAUUACGAUAG
- self-splicing fitness (ln) (30 °C): -0.991 ± 0.11
- self-splicing fitness (ln) (37 °C): -0.782 ± 0.14

Sequence: GCGGAGCAAUAUUACGUUAA
- self-splicing fitness (ln) (30 °C): -2.66 ± 0.25
- self-splicing fitness (ln) (37 °C): -2.32 ± 0.3

Sequence: GCAGAGCAAUAUUACGACUU
- self-splicing fitness (ln) (30 °C): -2.82 ± 0.16
- self-splicing fitness (ln) (37 °C): -0.936 ± 0.14

Sequence: GUUCAGCAAUAUUACGGACU
- self-splicing fitness (ln) (30 °C): -3.7 ± 0.14
- self-splicing fitness (ln) (37 °C): -2.88 ± 0.18

Sequence: UCUCAGCAAUAUUACGUACA
- self-splicing fitness (ln) (30 °C): -1.81 ± 0.21
- self-splicing fitness (ln) (37 °C): -0.374 ± 0.15

Sequence: CGUCAGCAAUAUUACGGUGA
- self-splicing fitness (ln) (30 °C): -2.52 ± 0.11
- self-splicing fitness (ln) (37 °C): -2.81 ± 0.16

Sequence: CGGUAGCAAUAUUACGUCCG
- self-splicing fitness (ln) (30 °C): -2.86 ± 0.3
- self-splicing fitness (ln) (37 °C): -2.02 ± 0.36

Sequence: AGUUAGCAAUAUUACGGAUA
- self-splicing fitness (ln) (30 °C): -2 ± 0.31
- self-splicing fitness (ln) (37 °C): -1.42 ± 0.25

Sequence: AGCUAGCAAUAUUACGCUGG
- self-splicing fitness (ln) (30 °C): -3.58 ± 0.2
- self-splicing fitness (ln) (37 °C): -2.31 ± 0.3

Sequence: CUAUAGCAAUAUUACGUUAA
- self-splicing fitness (ln) (30 °C): -4.29 ± 0.47
- self-splicing fitness (ln) (37 °C): -3.36 ± 0.42

Sequence: GAAGAGCAAUAUUACGUUUC
- self-splicing fitness (ln) (30 °C): -2.8 ± 0.14
- self-splicing fitness (ln) (37 °C): -2.74 ± 0.22

Sequence: AGGUAGCAAUAUUACGAGAC
- self-splicing fitness (ln) (30 °C): -3.88 ± 0.039
- self-splicing fitness (ln) (37 °C): -2.69 ± 0.044

Sequence: GUUAAGCAAUAUUACGUUCC
- self-splicing fitness (ln) (30 °C): -2.16 ± 0.18
- self-splicing fitness (ln) (37 °C): -0.875 ± 0.23

Sequence: UCAGAGCAAUAUUACGUAAC
- self-splicing fitness (ln) (30 °C): -2.5 ± 0.26

Sequence: CUUAAGCAAUAUUACGUGCG
- self-splicing fitness (ln) (30 °C): -1.34 ± 0.079
- self-splicing fitness (ln) (37 °C): -0.172 ± 0.1

Sequence: UGCCAGCAAUAUUACGUACG
- self-splicing fitness (ln) (30 °C): -0.444 ± 0.061
- self-splicing fitness (ln) (37 °C): 0.435 ± 0.084

Sequence: GUCCAGCAAUAUUACGUGAA
- self-splicing fitness (ln) (30 °C): 0.0486 ± 0.079
- self-splicing fitness (ln) (37 °C): 0.617 ± 0.098

Sequence: GCAUAGCAAUAUUACGCUAC
- self-splicing fitness (ln) (30 °C): -3.61 ± 0.34
- self-splicing fitness (ln) (37 °C): -2.11 ± 0.27

Sequence: CCGCAGCAAUAUUACGCGGA
- self-splicing fitness (ln) (30 °C): -3.03 ± 0.29
- self-splicing fitness (ln) (37 °C): -3.11 ± 0.3

Sequence: ACUAAGCAAUAUUACGUGUU
- self-splicing fitness (ln) (30 °C): -3.63 ± 0.1
- self-splicing fitness (ln) (37 °C): -2.2 ± 0.098

Sequence: AUUGAGCAAUAUUACGUCGC
- self-splicing fitness (ln) (37 °C): -1.8 ± 0.46

Sequence: AGACAGCAAUAUUACGGCCU
- self-splicing fitness (ln) (30 °C): -1.2 ± 0.085
- self-splicing fitness (ln) (37 °C): -0.234 ± 0.09

Sequence: UCCAAGCAAUAUUACGUGUA
- self-splicing fitness (ln) (30 °C): -0.565 ± 0.043
- self-splicing fitness (ln) (37 °C): 0.504 ± 0.057

Sequence: UCUAAGCAAUAUUACGCCUU
- self-splicing fitness (ln) (30 °C): -3.44 ± 0.36
- self-splicing fitness (ln) (37 °C): -2.32 ± 0.27

Sequence: GCUCAGCAAUAUUACGGGCC
- self-splicing fitness (ln) (30 °C): -2.8 ± 0.2
- self-splicing fitness (ln) (37 °C): -3.37 ± 0.25

Sequence: GCGUAGCAAUAUUACGGAUA
- self-splicing fitness (ln) (30 °C): -1.67 ± 0.13
- self-splicing fitness (ln) (37 °C): -0.826 ± 0.13

Sequence: AGCUAGCAAUAUUACGAGCU
- self-splicing fitness (ln) (30 °C): -2.65 ± 0.19
- self-splicing fitness (ln) (37 °C): -1.92 ± 0.21

Sequence: GUACAGCAAUAUUACGCGAA
- self-splicing fitness (ln) (30 °C): -2.24 ± 0.13
- self-splicing fitness (ln) (37 °C): -2.22 ± 0.14

Sequence: CGCGAGCAAUAUUACGAAGC
- self-splicing fitness (ln) (37 °C): -1.75 ± 0.45

Sequence: CGAGAGCAAUAUUACGGAUU
- self-splicing fitness (ln) (30 °C): -2.72 ± 0.39

Sequence: UAGAAGCAAUAUUACGAUCC
- self-splicing fitness (ln) (30 °C): -2.25 ± 0.23
- self-splicing fitness (ln) (37 °C): -1.45 ± 0.3

Sequence: UGUAAGCAAUAUUACGGGUA
- self-splicing fitness (ln) (30 °C): -1.61 ± 0.22
- self-splicing fitness (ln) (37 °C): -0.187 ± 0.16

Sequence: CCGGAGCAAUAUUACGCGGC
- self-splicing fitness (ln) (30 °C): -3.5 ± 0.31
- self-splicing fitness (ln) (37 °C): -2.33 ± 0.26

Sequence: GCAGAGCAAUAUUACGAACG
- self-splicing fitness (ln) (37 °C): -1.78 ± 0.43

Sequence: GGUGAGCAAUAUUACGAGUA
- self-splicing fitness (ln) (30 °C): -1.41 ± 0.21
- self-splicing fitness (ln) (37 °C): -1.69 ± 0.29

Sequence: UGGUAGCAAUAUUACGGAAG
- self-splicing fitness (ln) (30 °C): -2.16 ± 0.15
- self-splicing fitness (ln) (37 °C): -1.27 ± 0.18

Sequence: AGAGAGCAAUAUUACGACAC
- self-splicing fitness (ln) (37 °C): -1.4 ± 0.26

Sequence: AAUUAGCAAUAUUACGCGAG
- self-splicing fitness (ln) (30 °C): -1.84 ± 0.12
- self-splicing fitness (ln) (37 °C): -0.918 ± 0.12

Sequence: CUGAAGCAAUAUUACGUUGG
- self-splicing fitness (ln) (30 °C): -2.84 ± 0.13
- self-splicing fitness (ln) (37 °C): -1.58 ± 0.13

Sequence: GACCAGCAAUAUUACGUCUC
- self-splicing fitness (ln) (30 °C): -0.562 ± 0.044
- self-splicing fitness (ln) (37 °C): -0.159 ± 0.064

Sequence: UUUAAGCAAUAUUACGGUUC
- self-splicing fitness (ln) (30 °C): -3.56 ± 0.21
- self-splicing fitness (ln) (37 °C): -2.47 ± 0.2
